From publication PMC6436938 come the findings set out here.

pKd: −log10 of the molar value.

In assay [1] the target is Impβ labeled with fluorescent Alexa 488 dye (human) (UniProt Q14974). Description: native gel or EMSA. On the technique in general: In EMSA bound probe runs differently from free probe, usually more slowly.
Assay [2] has as its target Impβ6M labeled with fluorescent Alexa 488 dye (human) (UniProt Q14974). Description: native gel or EMSA.

Sequence of Impβ labeled with fluorescent Alexa 488 dye (human) (Q14974 whole entry): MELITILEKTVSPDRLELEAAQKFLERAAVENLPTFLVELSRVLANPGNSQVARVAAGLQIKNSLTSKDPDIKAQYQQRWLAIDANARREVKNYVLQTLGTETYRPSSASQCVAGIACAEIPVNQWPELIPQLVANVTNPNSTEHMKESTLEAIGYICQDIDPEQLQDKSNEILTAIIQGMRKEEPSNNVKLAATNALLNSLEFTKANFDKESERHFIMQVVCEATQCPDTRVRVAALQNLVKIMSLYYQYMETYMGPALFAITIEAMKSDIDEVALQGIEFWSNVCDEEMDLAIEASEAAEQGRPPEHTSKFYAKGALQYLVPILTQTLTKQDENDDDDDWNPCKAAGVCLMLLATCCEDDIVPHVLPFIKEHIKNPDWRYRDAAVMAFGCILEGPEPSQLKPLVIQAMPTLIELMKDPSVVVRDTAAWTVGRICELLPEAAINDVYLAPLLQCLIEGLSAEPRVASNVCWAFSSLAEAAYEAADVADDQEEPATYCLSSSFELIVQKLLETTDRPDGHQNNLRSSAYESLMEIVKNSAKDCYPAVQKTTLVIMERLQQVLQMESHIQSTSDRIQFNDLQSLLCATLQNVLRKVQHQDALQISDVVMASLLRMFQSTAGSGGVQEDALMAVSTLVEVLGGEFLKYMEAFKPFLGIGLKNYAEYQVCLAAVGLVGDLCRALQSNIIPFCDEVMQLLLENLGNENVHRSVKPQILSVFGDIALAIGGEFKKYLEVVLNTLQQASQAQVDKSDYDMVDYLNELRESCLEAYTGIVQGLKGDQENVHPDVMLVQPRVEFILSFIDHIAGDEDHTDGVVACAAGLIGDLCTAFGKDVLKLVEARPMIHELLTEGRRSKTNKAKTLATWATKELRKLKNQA
Sequence of Impβ6M labeled with fluorescent Alexa 488 dye (human) (Q14974 whole entry L174S/T175A/I178D/E214A/F217A/I218D): as the sequence (Q14974 whole entry) above, with L174S, T175A, I178D, E214A, F217A, I218D counted along it

For the substance Imp7 F1019S (natural protein), the negative-log Kd (pKd) (as a rule, −log10 of the Kd, conventionally taken in molar units) in assay [1] is 5.91. For “Imp7 F1028S and F1030S (natural protein)”, the negative-log Kd (pKd) in assay [1] was 5.54. In assay [1], “Impα F527S/F529S (from UniProt P52292 1-529) (natural protein)” gave a pKd of 6.04. Compared with the last substance, the pKd is 0.50 log units higher. On to “importin α (Impα, Kapα) (from UniProt P52292 1-529) (natural protein)”, for which the pKd is 6.21 in assay [1] and 5.48 in assay [2].
